The results in this text go back to paper doi:10.1101/2023.02.28.527262, “Tozorakimab (MEDI3506): a dual-pharmacology anti-IL-33 antibody that inhibits IL-33 signalling via ST2 and RAGE/EGFR to reduce inflammation and epithelial dysfunction” (bioRxiv, 2023).

This experiment concerns the target T1, soluble serum stimulated 2 (sST2) (UniProt Q01638-2 19-328).
T1 construct: ST2 (IL1RL1), truncated soluble isoform that lacks the transmembrane and intracellular domains of ST2L; also called soluble ST2; IL1RL1; source: recombinant; expression and purification described previously [21]; receptor glycoproteins re-monomerized by Superdex 200 SEC
T1 sequence (looked up): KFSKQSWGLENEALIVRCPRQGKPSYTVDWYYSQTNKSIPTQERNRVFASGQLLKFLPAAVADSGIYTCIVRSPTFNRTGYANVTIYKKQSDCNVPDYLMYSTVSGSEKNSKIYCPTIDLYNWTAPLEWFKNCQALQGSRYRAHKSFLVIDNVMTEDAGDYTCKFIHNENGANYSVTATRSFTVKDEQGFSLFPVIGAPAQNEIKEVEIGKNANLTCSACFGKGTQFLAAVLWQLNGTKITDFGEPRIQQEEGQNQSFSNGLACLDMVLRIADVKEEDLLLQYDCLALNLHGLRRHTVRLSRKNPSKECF
Nature of the experiment: KinExA; kinetic exclusion assay in free solution; IL-33^red titrated into fixed sST2 (30 pM and 2.0 pM); 1:1 binding model fitted to two datasets; association rate also by KinExA. The conditions noted are these: both partners purified. For orientation: Kinetic exclusion samples the free partner from a solution-phase mixture.

B1: reduced interleukin-33 (IL-33^red), residues 112–270 (ligand, human, UniProt O95760 112-270, looked up)
chain: SITGISPITEYLASLSTYNDQSITFALEDESYEIYVEDLKKDEKKDKVLLSYYESQHPSNESGDGVDGKMLMVTLSPTKDFWLHANNKEHSVELHKCEKPLPDQAFFVLHNMHSNCVSFECKTDPGVFIGVKDNHLALIKVDSSENLCTENILFKLSET
notes: Interleukin-33, human, residues 112-270, reduced form (free cysteines); also called wild-type IL-33; source: recombinant; expression and purification described previously [21]
For B1, the Kd (in general, the equilibrium constant for the complex coming apart) came to 0.09 pM and the kon (usually the rate constant with which the complex forms) came to 1.5e+08 M⁻¹ s⁻¹.
